Data on four molecules can be found in US7618621B2, “Mammalian multipotent neural stem cells and compositions, methods of preparation and methods of administration thereof” (The Board of Trustees of the University of Illinois, priority 2002, dated 2009).

The test system of one test is human NSCs. Put plainly: Retinal differentiation of human NSCs in vitro (opsin immunocytochemistry). Particulars: for differentiation of NSCs into retinal cells (opsin staining): FIG. 7(II), serum-free differentiation, 20 ng/ml IGF-1, 100 ng/ml TGF-b3, 10 ng/ml CNTF; for differentiation of NSCs into opsin-positive cells: factor for 3 days before, or for 5 days during, spontaneous differentiation in serum-free condition, 50 ng/ml. The format is cell-based. As to the method:
Two kinds of differentiation studies were performed: treatment of human NSCs with factors (i) before and (ii) during spontaneous differentiation under a basal media condition. In the first example, NSCs were differentiated under a serum-free differentiation condition in the presence of TGF-b3 (R&D, 50 ng/ml (1 ng/ml to 1 ug/ml)) and VEGF (R&D, 50 ng/ml (1 ng/ml to 1 ug/ml)) for 5 days in Lab-Teck II chamber slides (Nalge Nunc). The second example elucidated whether pretreatment of NSCs is sufficient to produce retinal lineages in these cells. The NSCs were treated with these factors for 3 days, and then differentiated for 5 days under the serum-free differentiation condition in the absence of these factors in the Lab-Teck II chamber slides. As a control, human NSCs were differentiated for 5 days in a no-factor treatment under a serum-free differentiation condition. After differentiation, cells were examined by double-immunofluorescent-cytochemistry (Kim et al., 2002, Proc. Natl. Acad. Sci. U S A 99: 4020-5) with antibodies in a combination of goat anti-GFAP (1:100, Research Diagnostics) and mouse anti-B-tubulin (1:700, Sigma) or mouse anti-opsin (1:200, Chemicon). […] No opsin-positive cells were detected in the spontaneous differentiation without TGF-b3 (FIG. 7b), the treated cells were positive for bIII-tubulin and GFAP (FIG. 7a).

A further test has as its system rat retina. Put plainly: Transplantation of pretreated NSCs into the rat vitreous cavity (opsin immunocytochemistry, human opsin ISHH). The format is in vivo. The note with it: FIG. 8(II); 8 days after transplantation to rat eye; NSCs exposed for four days to 20 ng/ml IGF-1, 100 ng/ml TGF-b3 or 10 ng/ml CNTF.
Another test concerns MeSCs. The test can be described thus: Retinal cell differentiation of MeSCs with growth factor treatment. Particulars: without BrdU pre-treatment. The format is cell-based.

Take IGF-1: insulin-like growth factor-1: the “differentiation of NSCs into retinal cells (opsin staining)” value (“differentiation … (opsin staining)” for short) with human NSCs is given as “can differentiate into retinal cells”. Moreover, in the test on rat retina, the “differentiation of transplanted NSCs to opsin-expressing cells in vivo” value (“differentiation of transplanted NSCs” for short) is listed as “differentiated to opsin-expressing cells in vivo”.
Take VEGF: the “retinal cell-differentiation of MeSCs” value in the test on MeSCs is given as “not sufficient to confer retinal cell-differentiation”. The “differentiation of NSCs into opsin-positive cells” value in the test with human NSCs was “no opsin-positive cells were detectable”.

B1: CNTF: ciliary neurotrophic factor (protein, UniProt P26441 1-200, looked up)
Ciliary neurotrophic factor: MAFTEHSPLTPHRRDLCSRSIWLARKIRSDLTALTESYVKHQGLNKNINLDSADGMPVASTDQWSELTEAERLQENLQAYRTFHVLLARLLEDQQVHFTPTEGDFHQAIHTLLLQVAAFAYQIEELMILLEYKIPRNEADGMPINVGDGGLFEKKLWGLKVLQELSQWTVRSIHDLRFISSHQTGIPARGSHYIANNKKM
Consider B1, for which, in the test on human NSCs, the “differentiation … (opsin staining)” value is “can differentiate into retinal cells”. In the test on rat retina, the “differentiation of transplanted NSCs” value is “differentiated to opsin-expressing cells in vivo”.

B2: TGF-b3: human recombinant transforming growth factor beta 3 (R&D) (protein, UniProt P10600 301-412, looked up)
Transforming growth factor …: ALDTNYCFRNLEENCCVRPLYIDFRQDLGWKWVHEPKGYYANFCSGPCPYLRSADTTHSTVLGLYNTLNPEASASPCCVPQDLEPLTILYYVGRTPKVEQLSNMVVKSCKCS
As for B2, the “retinal cell-differentiation of MeSCs” value in the test on MeSCs is “not sufficient to confer retinal cell-differentiation”. Also, in the test with human NSCs, the “differentiation … (opsin staining)” value is “can differentiate into retinal cells” and the “differentiation of NSCs into opsin-positive cells” value was “differentiated into opsin-positive cells”. Besides, in the test with rat retina, the “differentiation of transplanted NSCs” value is reported as “differentiated to opsin-expressing cells in vivo”.
